This note sets out measurements from publication PMC5534098, “Modulation of chromatin structure by the FACT histone chaperone complex regulates HIV-1 integration” (Retrovirology, 2017).

In the assay the target is T1, FACT (FAcilitates Chromatin Transcription) complex, recombinant purified (human | , UniProt Q9Y5B9 1-1047; Q08945 1-709).
T1 construct: also called FACT complex; source: recombinant, purified as reported before [17, 18]
The experiment in a line: pull-down. Particulars: both partners purified.

T1 sequence (Q9Y5B9 whole entry, chain 1 of 2): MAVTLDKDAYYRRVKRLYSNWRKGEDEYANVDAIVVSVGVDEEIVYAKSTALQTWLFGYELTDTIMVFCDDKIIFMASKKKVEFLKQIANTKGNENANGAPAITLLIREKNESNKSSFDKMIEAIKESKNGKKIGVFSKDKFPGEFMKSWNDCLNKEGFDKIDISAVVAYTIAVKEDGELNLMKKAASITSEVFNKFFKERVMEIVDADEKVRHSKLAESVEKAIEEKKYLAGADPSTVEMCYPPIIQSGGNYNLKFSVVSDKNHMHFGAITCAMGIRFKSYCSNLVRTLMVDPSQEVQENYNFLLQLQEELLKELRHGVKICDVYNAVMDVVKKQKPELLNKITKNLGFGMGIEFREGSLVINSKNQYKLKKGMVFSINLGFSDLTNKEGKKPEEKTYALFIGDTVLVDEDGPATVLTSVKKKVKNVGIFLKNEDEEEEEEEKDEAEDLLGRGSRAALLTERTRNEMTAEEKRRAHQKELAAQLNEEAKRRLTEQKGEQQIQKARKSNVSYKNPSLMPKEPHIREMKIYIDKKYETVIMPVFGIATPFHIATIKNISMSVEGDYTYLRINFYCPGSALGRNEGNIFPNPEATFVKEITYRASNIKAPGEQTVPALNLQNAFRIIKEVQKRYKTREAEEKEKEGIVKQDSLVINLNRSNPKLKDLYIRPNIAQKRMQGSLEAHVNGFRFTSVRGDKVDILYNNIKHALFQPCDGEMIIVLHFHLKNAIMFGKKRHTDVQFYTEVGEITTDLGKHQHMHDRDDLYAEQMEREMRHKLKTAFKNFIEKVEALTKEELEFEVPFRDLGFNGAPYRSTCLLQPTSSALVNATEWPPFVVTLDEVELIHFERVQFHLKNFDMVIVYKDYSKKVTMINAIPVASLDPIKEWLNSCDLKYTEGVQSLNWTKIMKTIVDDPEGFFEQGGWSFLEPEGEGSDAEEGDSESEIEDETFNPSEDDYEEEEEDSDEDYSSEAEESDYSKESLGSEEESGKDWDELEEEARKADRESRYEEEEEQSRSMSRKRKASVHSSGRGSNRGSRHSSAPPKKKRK
T1 sequence (Q08945 whole entry, chain 2 of 2): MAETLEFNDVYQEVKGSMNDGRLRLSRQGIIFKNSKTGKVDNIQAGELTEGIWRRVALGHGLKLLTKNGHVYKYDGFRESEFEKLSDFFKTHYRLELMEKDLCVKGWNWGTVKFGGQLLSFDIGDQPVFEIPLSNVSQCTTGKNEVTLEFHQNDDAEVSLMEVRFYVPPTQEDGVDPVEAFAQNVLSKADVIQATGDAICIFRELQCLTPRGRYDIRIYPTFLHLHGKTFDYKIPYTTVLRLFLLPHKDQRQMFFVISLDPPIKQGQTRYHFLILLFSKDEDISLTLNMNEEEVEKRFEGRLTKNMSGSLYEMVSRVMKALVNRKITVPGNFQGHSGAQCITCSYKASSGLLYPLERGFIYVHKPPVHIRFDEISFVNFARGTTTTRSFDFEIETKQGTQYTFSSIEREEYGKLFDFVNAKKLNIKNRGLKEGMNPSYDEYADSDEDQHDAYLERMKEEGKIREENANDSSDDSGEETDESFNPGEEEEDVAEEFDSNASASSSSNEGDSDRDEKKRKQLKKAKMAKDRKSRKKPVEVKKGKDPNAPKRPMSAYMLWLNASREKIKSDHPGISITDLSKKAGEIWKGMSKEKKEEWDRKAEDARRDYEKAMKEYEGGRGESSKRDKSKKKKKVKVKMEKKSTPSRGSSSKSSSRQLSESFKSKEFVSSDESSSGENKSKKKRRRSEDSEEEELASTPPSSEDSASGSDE

B1: LEDGF/p75-GST (natural protein)
chain: not shown
On to B1, for which the binding result is “binds”.
